Experimental data from paper PMC7250496 (Journal of medicinal chemistry, 2020).
Square brackets hold non-standard residues; d marks the D form. Dap = NC[C@H](N)C(=O)O

Legend:
[1] = biological target: T1, mouse melanocortin 1 receptor (mouse, UniProt Q01727 1-315); test: radioligand binding
[2] = biological target: T2, mouse melanocortin 4 receptor (mouse, UniProt P56450 1-332); test: cell-based or functional assay
[3] = biological target: T3, mouse melanocortin 3 receptor (mouse, UniProt P33033 1-323); test: cell-based or functional assay
[4] = biological target: T4, mouse melanocortin 5 receptor (mouse, UniProt P41149 1-325); test: cell-based or functional assay
[5] = biological target: T1, mouse melanocortin 1 receptor; test: cell-based or functional assay
[6] = biological target: human melanocortin 4 receptor (human, UniProt P32245 1-332); test: radioligand binding
[7] = biological target: T2, mouse melanocortin 4 receptor; test: radioligand binding
[8] = biological target: T3, mouse melanocortin 3 receptor; test: radioligand binding
[9] = biological target: T4, mouse melanocortin 5 receptor; test: radioligand binding

T3 sequence (P33033 whole entry): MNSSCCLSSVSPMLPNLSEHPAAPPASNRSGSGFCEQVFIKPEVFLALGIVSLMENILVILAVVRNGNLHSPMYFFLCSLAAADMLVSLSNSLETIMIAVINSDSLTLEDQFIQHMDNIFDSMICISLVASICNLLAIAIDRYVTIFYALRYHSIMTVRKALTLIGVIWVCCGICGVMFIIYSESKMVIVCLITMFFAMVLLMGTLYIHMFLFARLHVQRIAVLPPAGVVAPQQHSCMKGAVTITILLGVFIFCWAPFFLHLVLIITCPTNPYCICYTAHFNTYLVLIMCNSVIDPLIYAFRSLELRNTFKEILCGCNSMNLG
T2 sequence (P56450 whole entry): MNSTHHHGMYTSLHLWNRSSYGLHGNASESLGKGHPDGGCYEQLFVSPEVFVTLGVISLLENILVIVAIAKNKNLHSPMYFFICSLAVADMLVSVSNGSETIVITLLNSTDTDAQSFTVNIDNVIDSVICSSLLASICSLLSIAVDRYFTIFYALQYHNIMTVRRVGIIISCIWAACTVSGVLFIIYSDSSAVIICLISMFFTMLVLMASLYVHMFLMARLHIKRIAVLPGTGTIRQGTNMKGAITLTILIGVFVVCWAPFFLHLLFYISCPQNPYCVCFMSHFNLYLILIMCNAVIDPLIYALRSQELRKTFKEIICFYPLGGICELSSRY
human melanocortin 4 receptor, sequence (P32245 whole entry): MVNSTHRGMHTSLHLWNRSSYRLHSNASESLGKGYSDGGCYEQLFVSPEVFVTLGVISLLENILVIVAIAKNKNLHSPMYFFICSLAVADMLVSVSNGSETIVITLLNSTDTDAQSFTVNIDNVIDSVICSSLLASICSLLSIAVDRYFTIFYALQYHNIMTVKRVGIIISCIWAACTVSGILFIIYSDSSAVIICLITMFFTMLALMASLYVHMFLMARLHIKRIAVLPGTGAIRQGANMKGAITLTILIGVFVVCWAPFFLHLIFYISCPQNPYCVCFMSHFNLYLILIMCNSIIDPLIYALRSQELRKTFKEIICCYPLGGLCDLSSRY
T4 sequence (P41149 whole entry): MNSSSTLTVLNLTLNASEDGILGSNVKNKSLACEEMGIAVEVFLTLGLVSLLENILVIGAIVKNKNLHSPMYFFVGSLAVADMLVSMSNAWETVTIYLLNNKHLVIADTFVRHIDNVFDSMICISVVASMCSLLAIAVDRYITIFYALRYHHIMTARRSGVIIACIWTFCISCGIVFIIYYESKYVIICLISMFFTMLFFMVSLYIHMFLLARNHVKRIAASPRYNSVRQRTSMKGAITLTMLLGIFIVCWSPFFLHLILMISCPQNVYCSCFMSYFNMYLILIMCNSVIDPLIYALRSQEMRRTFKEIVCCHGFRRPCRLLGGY
T1 sequence (Q01727 whole entry): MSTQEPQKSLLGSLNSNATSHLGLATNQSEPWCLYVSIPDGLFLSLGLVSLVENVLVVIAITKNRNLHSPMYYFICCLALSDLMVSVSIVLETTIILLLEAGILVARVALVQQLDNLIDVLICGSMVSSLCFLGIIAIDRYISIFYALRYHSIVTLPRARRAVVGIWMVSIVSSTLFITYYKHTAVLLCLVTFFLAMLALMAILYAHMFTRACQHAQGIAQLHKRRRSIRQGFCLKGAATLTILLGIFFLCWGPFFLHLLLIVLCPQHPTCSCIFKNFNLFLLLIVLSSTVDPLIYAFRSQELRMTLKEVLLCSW

Row | Binder | IC50 [1] [µM] | agonist activity, cAMP AlphaScreen, HEK293 cells stably expressing the receptor [2] | agonist activity, cAMP AlphaScreen, HEK293 cells stably expressing the receptor [3] | agonist activity, cAMP AlphaScreen, HEK293 cells stably expressing the receptor [4] [µM] | agonist activity, cAMP AlphaScreen, HEK293 cells stably expressing the receptor [5] | IC50 [6] [µM] | IC50 [7] [µM] | IC50 [8] [µM] | IC50 [9] [µM]
1 | cyclo(PRFFNAF[dP]) [c[Pro-Arg-Phe-Phe-Asn-Ala-Phe-DPro]] | 9 | – | – | – | – | – | – | – | –
2 | cyclo(PRFFNVF[dP]) [c[Pro-Arg-Phe-Phe-Asn-Val-Phe-DPro]] | 15 | 16 % of maximal NDP-MSH response at 100 μM | > 100 µM | > 100 | 23 % of maximal NDP-MSH response at 100 μM | 0.25 | 0.038 | 53 | 29
3 | cyclo(PRYFNAF[dP]) [c[Pro-Arg-Tyr-Phe-Asn-Ala-Phe-DPro]] | > 100 | > 100 µM | > 100 µM | – | > 100 µM | 14.3 | 2 | > 100 | > 100
4 | cyclo(PCFFNAF[dP]) [c[Pro-Cys-Phe-Phe-Asn-Ala-Phe-DPro]] | 24.6 | > 100 µM | > 100 µM | – | 46 % of maximal NDP-MSH response at 100 μM | 19.3 | 1.9 | > 100 | > 100
5 | cyclo(PHFFNAF[dP]) [c[Pro-His-Phe-Phe-Asn-Ala-Phe-DPro]] | > 100 | > 100 µM | > 100 µM | > 100 | 23 % of maximal NDP-MSH response at 100 μM | 22 | 6.7 | > 100 | > 100
6 | cyclo(PRFF[Dap]VF[dP]) [c[Pro-Arg-Phe-Phe-Dap-Val-Phe-DPro]] | 8 | 37 % of maximal NDP-MSH response at 100 μM | 27 % of maximal NDP-MSH response at 100 μM | > 100 | 79 % of maximal NDP-MSH response at 100 μM | 0.0322 | – | 10 | 2.7
7 | cyclo(PHFF[Dap]AF[dP]) [c[Pro-His-Phe-Phe-Dap-Ala-Phe-DPro]] | 25 | > 100 µM | > 100 µM | > 100 | 56 % of maximal NDP-MSH response at 100 μM | 2.7 | 1 | 15 | 12
8 | cyclo(PRYF[Dap]AF[dP]) [c[Pro-Arg-Tyr-Phe-Dap-Ala-Phe-DPro]] | 18 | > 100 µM | > 100 µM | > 100 | 48 % of maximal NDP-MSH response at 100 μM | 1.02 | 0.134 | 28 | 36
9 | cyclo(PCFF[Dap]AF[dP]) [c[Pro-Cys-Phe-Phe-Dap-Ala-Phe-DPro]] | 33 | 42 % of maximal NDP-MSH response at 100 μM | 29 % of maximal NDP-MSH response at 100 μM | > 100 | 4 µM | 15.7 | 10 | 49 | > 100
10 | PRFFXAFP (Dap (diaminopropionic acid) at position 5 (X in the letters); DPro at position 8; head-to-tail cyclised (macrocycle)) [c[Pro-Arg-Phe-Phe-Dap-Ala-Phe-DPro]] | 5.2 | – | – | – | – | – | – | 3.2 | 1.7
